One assay deals with Stat3 (UniProt P40763). The assay is described as follows: fluorescence polarization competition. (In general: Fluorescence polarisation rises when a labelled molecule tumbles more slowly, as on binding a larger partner.)
Assay [1] deals with Stat3 in IL-6 stimulated HepG2 hepatoma cells (UniProt P40763). The assay is described as follows: cell-based or functional assay.
Sequence of Stat3 in IL-6 stimulated HepG2 hepatoma cells (P40763 2-770 limits assumed): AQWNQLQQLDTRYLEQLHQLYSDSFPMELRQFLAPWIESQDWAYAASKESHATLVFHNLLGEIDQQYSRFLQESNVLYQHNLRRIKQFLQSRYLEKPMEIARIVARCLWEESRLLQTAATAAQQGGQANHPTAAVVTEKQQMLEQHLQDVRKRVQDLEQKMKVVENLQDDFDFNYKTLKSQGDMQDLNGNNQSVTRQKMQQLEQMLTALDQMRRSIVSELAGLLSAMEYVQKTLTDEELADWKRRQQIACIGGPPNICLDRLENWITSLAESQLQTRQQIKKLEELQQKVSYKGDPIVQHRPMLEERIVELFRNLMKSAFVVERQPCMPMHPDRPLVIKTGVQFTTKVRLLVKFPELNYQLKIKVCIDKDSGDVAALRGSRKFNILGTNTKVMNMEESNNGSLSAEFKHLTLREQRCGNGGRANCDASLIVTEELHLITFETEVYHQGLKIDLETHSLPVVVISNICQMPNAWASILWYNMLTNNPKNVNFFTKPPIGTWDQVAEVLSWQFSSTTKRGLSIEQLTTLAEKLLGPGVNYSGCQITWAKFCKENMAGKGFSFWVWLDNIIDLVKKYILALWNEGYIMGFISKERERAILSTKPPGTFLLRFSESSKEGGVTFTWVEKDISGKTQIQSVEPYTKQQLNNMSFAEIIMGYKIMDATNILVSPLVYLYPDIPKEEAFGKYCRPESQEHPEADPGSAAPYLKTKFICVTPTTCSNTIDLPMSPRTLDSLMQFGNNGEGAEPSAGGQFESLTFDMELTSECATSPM

Sequence of Stat3 (P40763 whole entry): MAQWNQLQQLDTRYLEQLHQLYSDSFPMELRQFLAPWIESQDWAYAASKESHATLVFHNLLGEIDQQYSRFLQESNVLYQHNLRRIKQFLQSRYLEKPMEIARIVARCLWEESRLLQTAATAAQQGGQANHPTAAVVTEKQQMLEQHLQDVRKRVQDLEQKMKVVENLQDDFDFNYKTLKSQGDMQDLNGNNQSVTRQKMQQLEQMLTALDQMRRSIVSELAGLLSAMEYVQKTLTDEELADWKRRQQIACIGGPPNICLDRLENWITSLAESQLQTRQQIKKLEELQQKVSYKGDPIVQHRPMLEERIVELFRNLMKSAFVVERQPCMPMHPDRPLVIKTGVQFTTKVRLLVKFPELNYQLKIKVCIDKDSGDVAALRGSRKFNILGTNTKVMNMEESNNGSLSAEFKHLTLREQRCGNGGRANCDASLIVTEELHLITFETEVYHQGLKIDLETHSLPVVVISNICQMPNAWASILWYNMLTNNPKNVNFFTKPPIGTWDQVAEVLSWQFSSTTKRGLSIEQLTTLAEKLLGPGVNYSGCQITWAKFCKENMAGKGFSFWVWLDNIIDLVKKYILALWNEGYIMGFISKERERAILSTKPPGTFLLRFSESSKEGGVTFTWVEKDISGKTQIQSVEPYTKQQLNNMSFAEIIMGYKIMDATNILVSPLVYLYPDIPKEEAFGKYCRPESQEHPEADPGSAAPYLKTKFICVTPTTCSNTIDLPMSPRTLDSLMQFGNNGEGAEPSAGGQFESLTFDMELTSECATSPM

Usually IC50 stands for the point on the concentration scale where inhibition reaches its midpoint. A high value points to weaker potency in that assay. For pCinn-Cha-Pro-Gln-NHBn (7, PM-66D), the IC50 with Stat3 came to 50 nM.

F2PmCinn-Cha-Pro-Gln-NHBn (8, PM-88D) had a half-maximal inhibitory concentration (IC50) with Stat3 of 2000 nM.

With pCinn-Leu-Pro-Gln-Thr-NH2 (5, PM-50D), the IC50 with Stat3 is 110 nM.

In assay [1], “F2PmCinn-Leu-Pro-Gln-Thr-Val-Ala-Ala-Val-Leu-Leu-Pro-Val-Leu-Leu-Ala-Ala-Pro-NH2 (peptide; the values are: luciferase activity remaining)” gave an IL-6 stimulated luciferase reporter under the Stat3-responsive alpha2-macroglobulin promoter, HEPG2 cells, peptide at 50 µM of 50% and an IL-6 stimulated luciferase reporter under the Stat3-responsive alpha2-macroglobulin promoter, HEPG2 cells, peptide at 100 µM of 25%.

In turn, “Ac-pTyr-Leu-Pro-Gln-Thr-Val-mts (peptide)” came in with an IL-6 stimulated luciferase reporter under the Stat3-responsive alpha2-macroglobulin promoter, HEPG2 cells, peptide at 50 and 100 µM (% of that of IL-6) in assay [1] of 60 to 70.

On to pInd-Cha-Pro-Gln-NHBn (9, PM-67D), for which, in the assay with Stat3, the concentration for half-maximal inhibition (IC50) was 100 nM.

On to “Ac-pTyr-Haic-Gln-Thr-NH2 (10, DRCIV-35B)”, for which the IC50 with Stat3 was found to be 200 nM.

In the assay with Stat3, “Ac-pTyr-Leu-methanoPro-Gln-Thr-NH2 (14, DRCIV-39B)” returned an IC50 of 200 nM.

“pCinn-Cha-methanoPro-Gln-NHBn (15, PM-84D)” displayed an IC50 with Stat3 of 110 nM.

The values are drawn from patent US20070010428A1, “Inhibitors of signal transduction and activator of transcription 3” (priority 2004, published 2007).
